Results: patent US20090035322A1 (Regeneron, published 2009)
Changes are numbered by the printed parent chain.

T1: human CD20 (human, UniProt P11836 1-297)
T1 construct: On human CD20-transfected MG87 cells, or endogenous on Daudi, RL and Raji cells; also called hCD20
T1 sequence: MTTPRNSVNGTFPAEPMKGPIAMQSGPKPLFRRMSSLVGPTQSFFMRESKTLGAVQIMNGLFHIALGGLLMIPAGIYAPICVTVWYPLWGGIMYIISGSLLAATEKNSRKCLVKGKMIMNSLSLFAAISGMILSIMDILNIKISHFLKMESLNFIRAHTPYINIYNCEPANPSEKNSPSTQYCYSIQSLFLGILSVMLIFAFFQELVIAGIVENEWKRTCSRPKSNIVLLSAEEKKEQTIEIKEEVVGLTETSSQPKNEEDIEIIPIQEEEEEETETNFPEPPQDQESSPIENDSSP

T2: mutant human CD20 #1 (Y77F) (human, UniProt P11836 1-297)
T2 construct: Human residues replaced by mouse residues; stably expressed on MG87 cells
T2 sequence: T1 sequence with Y77F

T3: mutant human CD20 #4 (N166D) (human, UniProt P11836 1-297)
T3 construct: Stably expressed on MG87 cells
T3 sequence: T1 sequence with N166D

T4: mutant human CD20 #9 (N163D, N166D) (human, UniProt P11836 1-297)
T4 construct: Stably expressed on MG87 cells
T4 chain: T1 sequence with N163D, N166D

T5: mutant human CD20 #3 (A170S, P172S) (human, UniProt P11836 1-297)
T5 construct: Stably expressed on MG87 cells
T5 chain: T1 sequence with A170S, P172S

T6: mutant human CD20 #5 (P172S) (human, UniProt P11836 1-297)
T6 construct: Stably expressed on MG87 cells
T6 sequence: T1 sequence with P172S

T7: mutant human CD20 #6 (Y77F, N166D) (human, UniProt P11836 1-297)
T7 construct: Stably expressed on MG87 cells
T7 chain: T1 sequence with Y77F, N166D

B1: 2B7-7 (antibody, V domains shown)
VH: EVQLVESGGGLVQPGRSLRLSCAASGFTFRDYTMHWVRQGPGKGLEWVSGISWNSDYIGYADSVKGRFTISRDNAKNSLYLQMNSLRVEDTALYYCAKLSGTYRDYFYGVDVWGQGTTVTVSS
VL: EIVLTQSPATLSLSPGERAALSCRASQSVSNYLAWYQQKPGQAPRLLIYDASNRATGIPARFSGSGSGTDFTLTISSLEPEDFAVYYCQQRSNWPLTFGGGTKVEIR
notes: Fully human IgG, constant region not specified; also called 2B7-7N
B2: 6B9-4 (antibody, V domains shown)
VH: EEQLVESGGDLVQPGRSLRLSCAASGFTFHDYTMHWVRQAPGKGLEWVSGISWNSGSIGYADSVKGRFTISRDNAKNSLYLQMNSLRIEDTALYYCAKDPSYGSGSYYYYYGMDVWGQGTTVTVSS
VL: B1 VL with A20T, N31S, A34V, K39R, D50E, P80S, R107K
notes: Fully human IgG, constant region not specified; also called 6B9-4N
B3: 2C11-4 (antibody, V domains shown)
VH: EVQLVESGGGLVQPGRSLRLSCAASGFTFRDYAMHWVRQGPGKGLEWVSGISWNTDYIGYADSVKGRFTISRDNAKNSLYLQMNSLRPEDTALYYCAKDARYGRDNYYGMDVWGQGTTVTVSS
VL: EIVLTQSPATLSLSPGERATLSCRASQSVSRYLAWYQQKPGQAPRLLIHDASNRATGIPARFSGSGSGTDFTLTITSLEPEDFVVYYCQQRSDWPITFGQGTRLEIK
notes: Fully human IgG, constant region not specified; also called 2C11-4N
B4: 9H4-12 (antibody, V domains shown)
VH: EVQLVESGGGLVQPGRSLRLSCAASGFTFDDYAMHWVRQVPGKGLEWVSGISWNSGSIGYADSVKGRFTISRDNAKNSLYLQMNSLRAEDTALYYCAKDMGYGNYYHYGMDVWGQGTTVTVSS
VL: B3 VL with E1D, R31S, H49C, N53H, G57R, T76S, V84A, D93N
notes: Fully human IgG, constant region not specified; also called 9H4-12N
B5: 10E3-17 (antibody, V domains shown)
VH: EVQLVESGGGLVQPGRSLRLSCAASGFTFRDYAMHWVRQVPGKGLEWVSGISWNRGTIGYADSVKGRFTISRDNAKNSLFLQMNSLRADDTALYYCAKDHYYGSGSPYGMDVWGQGTTVTVSS
VL: EIVLTQSPATLALSPGERATLSCRASQSVSKYLAWYQQKPGQAPRLLIYDASKRVTGIPGRLSGSGSGTDFTLTISSLEPEDFALYYCQQSSNWPITFGQGTRVEIK
notes: Fully human IgG, constant region not specified; also called 10E3-17N
B6: 3H7-6 (antibody, V domains shown)
VH: EVQLVESGGGLVQPGRSLRLSCAASGFTFYDYAMHWVRQAPGKGLEWVSGISWNSGYIGYADSVKGRFTISRDNAKNSLYLQMNSLRAEDTALYYCAKDNSYGKFYYGLDVWGQGTTVTVSS
VL: EIVMTQSPATLSVSPGERTTLSCRASQSVSSNLAWYLQKPGQAPRLLIYGASTRATGIPARFSGSGSGTEFILTISSLQSEDFAVYYCQQYNNWPITFGQGTRLEIK
notes: Fully human IgG, constant region not specified; also called 3H7-6N
B7: 9C11-14 (antibody, V domains shown)
VH: QVQLVESGGDSVKPGGSLRLSCAASGFTFSDSYMTWIRQAPGKGLEWVSFISSSGSTIYYADSVKGRFTISRDNVKKSLYLQMNRLRAEDTAVYYCAREEPGNYVYYGMDVWGQGTTVTVSS
VL: EIVVTQSPATLSLSPGERATLSCRTSQTTTSYLAWYRQKPGQAPRLLIYDASNRAAGIPARFSGSGSGTDFTLTINSLEPEDFAVYYCQLRTNWITFGQGTRLEIK
notes: Fully human IgG, constant region not specified; also called 9C11-14N

These binders were tested against T1, human CD20 (assay: flow cytometry, hCD20-transfected MG87 cells).
Experimental: Briefly, parental MG87 and human CD20-transfected MG87 cells were incubated for 30 min at 4° C. with each of the 15 human antibodies and the two control antibodies, followed by incubation with PE-conjugated anti-human IgG antibody. Binding was assessed by flow cytometry. Fluorescence intensities were compared with binding to the parental cell line and control isotype-matched sample.

| Total Mean Fluorescent Intensity | Binder |
| --- | --- |
| 3480 | B1 |
| 2930 | B2 |
| 2010 | B3 |
| 2040 | B4 |
| 3070 | B5 |
| 3300 | B6 |
| 2750 | B7 |

What follows are binders tested against T2, mutant human CD20 #1 (Y77F) (assay: FACS, mutant-hCD20 MG87 cells; 100%=best antibody).
Experimental: (§1) Briefly, approximately 1×10⁶ cells from each stably transfected cell line expressing a mutant human CD20 were collected and incubated with each anti-human antibody, at 10 μg/ml, on ice for 1 hr, followed by incubation with APC-conjugated goat anti-human IgG (Jackson Immunolabs), at 10 μg/ml, on ice for 45 min. For each antibody, binding to each mutant human CD20 was assessed by flow cytometry.

| Percent of Binding to Mutant Human CD20 | Binder |
| --- | --- |
| 100% | B1 |
| 74% | B2 |
| 35% | B3 |
| 19% | B4 |
| 61% | B5 |
| 28% | B6 |
| 89% | B7 |

What follows are binders tested against T3, mutant human CD20 #4 (N166D) (assay: FACS, mutant-hCD20 MG87 cells; 100%=best antibody).
Experimental: as §1

| Percent of Binding to Mutant Human CD20 | Binder |
| --- | --- |
| 100% | B1 |
| 3% | B2 |
| 31% | B3 |
| 0% | B4 |
| 1% | B5 |
| 4% | B6 |
| 87% | B7 |

Biological target: T4, mutant human CD20 #9 (N163D, N166D)
Experiment: FACS, mutant-hCD20 MG87 cells; 100%=best antibody
Experimental: as §1

| Percent of Binding to Mutant Human CD20 | Binder |
| --- | --- |
| 4% | B1 |
| 3% | B2 |
| 3% | B3 |
| 4% | B4 |
| 4% | B5 |
| 3% | B6 |
| 100% | B7 |

Biological target: T5, mutant human CD20 #3 (A170S, P172S)
Experiment: FACS, mutant-hCD20 MG87 cells; 100%=best antibody
Experimental: as §1

| Percent of Binding to Mutant Human CD20 | Binder |
| --- | --- |
| 87% | B1 |
| 64% | B2 |
| 11% | B3 |
| 0% | B4 |
| 6% | B5 |
| 43% | B6 |
| 0% | B7 |

These binders were tested against T6, mutant human CD20 #5 (P172S) (assay: FACS, mutant-hCD20 MG87 cells; 100%=best antibody).
Experimental: as §1

| Percent of Binding to Mutant Human CD20 | Binder |
| --- | --- |
| 88% | B1 |
| 67% | B2 |
| 30% | B3 |
| 2% | B4 |
| 49% | B5 |
| 45% | B6 |
| 29% | B7 |

Biological target: T7, mutant human CD20 #6 (Y77F, N166D)
Experiment: FACS, mutant-hCD20 MG87 cells; 100%=best antibody
Experimental: as §1

| Percent of Binding to Mutant Human CD20 | Binder |
| --- | --- |
| 12% | B1 |
| 1% | B2 |
| 1% | B3 |
| 1% | B4 |
| 1% | B5 |
| 0% | B6 |
| 87% | B7 |
